In assay [1] the target is …-GGG-C(fluorescein). The assay can be described thus: fluorescence polarization, 2 nM labelled peptide titrated with antibody.
Assay [2] deals with …-GGG-C(fluorescein). Description: fluorescence polarization, 2 nM fluorescein-labelled peptide titrated with antibody. On the technique in general: Fluorescence polarisation rises when a labelled molecule tumbles more slowly, as on binding a larger partner.
Assay [3] addresses …-GGG-C(fluorescein) (HIV1). The assay can be described thus: fluorescence polarization, 10 nM fluorescein-labelled peptide titrated with antibody.
Assay [4] addresses WEKIRLR-GGG-C(fluorescein) (HIV1). The assay is described as above.
Assay [5] deals with …-GGG-C(fluorescein) (HIV1). Description: fluorescence polarization, 10 nM labelled peptide titrated with antibody.
Assay [6] has as its target WEKIRLR-GGG-C(fluorescein) (HIV1). Described as above.

As a reminder, the Kd is the concentration at which binding is half-saturated. A word on the EC50 (read off the curve): it is the midpoint of the concentration-response curve. A low value points to greater potency. Turning to “HA monoclonal antibody (clone 2-2.2.14, Thermo Scientific)”, in the assay with …-GGG-C(fluorescein) [1], the equilibrium dissociation constant (Kd) amounted to 0.58 nM. For the same substance, the concentration giving a half-maximal response (EC50 (read off the curve)) in the assay with …-GGG-C(fluorescein) [2] was 1 to 2 nM.
For the substance “anti-HIV-1-p17 antibody (clone 32/1.24.89, Zeptometrix)”, the values for the EC50 (read off the curve) in assay [3] and in assay [4] were 30 nM and 3000 nM, respectively. The dissociation constant Kd came out at 24 nM in assay [5] and 3300 nM in assay [6].

Source of the values: patent publication US20150285818A1, “Switchable Reporter Enzymes for Homogenous Antibody Detection” (TECHNISCHE UNIVERSITEIT EINDHOVEN, priority 2012, published 2015).
